# Measurements: patent US20220411536A1 (NUMAB THERAPEUTICS, published 2022)
# T1: recombinant human IL-23R (custom-made by Trenzyme) (human, UniProt Q5VWK5 24-355)
# T1 sequence (looked up): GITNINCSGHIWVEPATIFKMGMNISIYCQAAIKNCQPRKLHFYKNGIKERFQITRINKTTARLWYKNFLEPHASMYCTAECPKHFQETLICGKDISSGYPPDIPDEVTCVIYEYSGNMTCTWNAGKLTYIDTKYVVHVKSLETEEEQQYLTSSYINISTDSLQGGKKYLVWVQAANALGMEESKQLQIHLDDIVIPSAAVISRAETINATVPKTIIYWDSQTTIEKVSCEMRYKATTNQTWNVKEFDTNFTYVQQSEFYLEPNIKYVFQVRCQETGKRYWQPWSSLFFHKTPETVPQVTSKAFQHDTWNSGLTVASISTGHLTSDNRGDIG
# Legend:
# [1] = molecular target: T2, human PD-L1 expressed on cells (CHO-PD-L1, HCC1954, HCC827) (human, UniProt Q9NZQ7 19-290); experiment: flow cytometry competition in presence of human SA: binding of biotinylated PD-1 to HCC1954 cells (Her2+++, PD-L1); blocked ligand PD-1 [HCC1954]
# T2 construct: whole, on cells; also called hPD-L1; PD-L1 expressing cells
# [2] = molecular target: CD137 on transgenic NF-kB Jurkat reporter cells (Homo sapiens (Human), UniProt Q07011 24-255); experiment: cell-based or functional assay
# [3] = molecular target: T2, human PD-L1 expressed on cells …; experiment: flow cytometry with human SA, inhibition of PD-1 binding to HCC1954 cells
# human serum albumin = molecular target: T3, human serum albumin (human, UniProt P02768 25-609); experiment: SPR, immobilised HSA, pH 5.5
# T3 construct: also called HSA; human SA
# [4] = molecular target: T4, CD3e on Jurkat PD-1 NFAT reporter T cells or on T cells of human PBMCs (human, UniProt P07766 23-207); experiment: cell-based or functional assay
# [5] = molecular target: T5, Fc-tagged human PD-L1 extracellular domain (SinoBiological, cat. 10084-H02H) (human, UniProt Q9NZQ7 19-238); experiment: SPR, captured Fc-PD-L1 ECD
# T5 construct: extracellular domain; also called hPD-L1; not shown: Fc tag of the bought protein
# [6] = molecular target: T6, recombinant human CD3E ECD (SinoBiological, cat. 10977-H08H) (human, UniProt P07766 23-126); experiment: SPR, immobilised CD3e ECD, two-state model; overall KD of the two-state fit
# T6 construct: extracellular domain; bought protein; also called CD3s
# T6 sequence (P07766 23-126): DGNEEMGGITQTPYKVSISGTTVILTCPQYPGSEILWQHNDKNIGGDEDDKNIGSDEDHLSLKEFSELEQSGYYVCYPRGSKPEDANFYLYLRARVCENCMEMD
# [7] = molecular target: T6, recombinant human CD3E ECD …; experiment: SPR, immobilised CD3e ECD, two-state model
# [8] = molecular target: T1, recombinant human IL-23R (custom-made …); experiment: SPR, immobilised IL-23R
# [9] = molecular target: T6, recombinant human CD3E ECD …; experiment: SPR, immobilised CD3e ECD, two-state model (kd1); kd1, first step of the two-state fit
# [10] = molecular target: T7, recombinant human Her2 ECD (SinoBiological, cat. 10004-HCCH) (human, UniProt P04626 23-652); experiment: SPR, immobilised Her2 ECD
# T7 construct: extracellular domain; bought protein
# [11] = molecular target: T6, recombinant human CD3E ECD …; experiment: SPR, immobilised CD3e ECD, two-state model (ka1); ka1, first step of the two-state fit
# mouse serum albumin = molecular target: T8, mouse serum albumin (mouse, UniProt P07724 25-608); experiment: SPR, immobilised MSA, pH 5.5
# T8 construct: also called MSA; mouse SA
# T8 sequence (P07724 25-608 limits assumed): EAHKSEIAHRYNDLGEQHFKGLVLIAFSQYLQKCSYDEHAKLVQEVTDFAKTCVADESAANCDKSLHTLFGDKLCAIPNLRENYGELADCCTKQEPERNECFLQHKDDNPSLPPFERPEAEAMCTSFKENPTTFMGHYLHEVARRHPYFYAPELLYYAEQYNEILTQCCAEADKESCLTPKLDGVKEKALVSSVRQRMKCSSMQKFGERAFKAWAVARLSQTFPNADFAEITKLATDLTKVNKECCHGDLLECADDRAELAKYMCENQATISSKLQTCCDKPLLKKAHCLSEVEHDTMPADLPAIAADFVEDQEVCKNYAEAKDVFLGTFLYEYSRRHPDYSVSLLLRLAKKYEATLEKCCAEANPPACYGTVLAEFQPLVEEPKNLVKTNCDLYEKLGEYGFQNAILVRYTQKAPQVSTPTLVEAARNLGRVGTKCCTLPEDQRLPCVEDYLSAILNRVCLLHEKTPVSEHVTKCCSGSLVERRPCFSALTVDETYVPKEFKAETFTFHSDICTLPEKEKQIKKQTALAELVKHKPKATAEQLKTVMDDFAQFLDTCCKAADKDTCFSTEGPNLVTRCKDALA
# [12] = molecular target: T4, CD3e on Jurkat PD-1 NFAT reporter T …; experiment: cell-based or functional assay; remark: listed apart in the source
# [13] = molecular target: T9, human HER2 expressed on cells (SK-OV3, MCF-7, HCC1954, HCC827) (human, UniProt P04626 23-1255); experiment: flow cytometry, SK-OV3 cells
# T9 construct: whole, on cells
# [14] = molecular target: T9, human HER2 expressed on cells (SK-OV3, …); experiment: flow cytometry, SK-OV3 cells, competitor 50 nM trastuzumab
# [15] = molecular target: T4, CD3e on Jurkat PD-1 NFAT reporter T …; experiment: cell-based or functional assay; remark: listed apart in the source
# [16] = molecular target: T9, human HER2 expressed on cells (SK-OV3, …); experiment: flow cytometry, SK-OV3 cells, no competitor
# [17] = molecular target: T9, human HER2 expressed on cells (SK-OV3, …); experiment: flow cytometry, IFNy-stimulated HCC1954 cells
# [18] = molecular target: unidentified antigen on CHO PD-L1 cells bound by pertuzumab (the filing speculates hamster HER2); experiment: flow cytometry, CHO PD-L1 cells (residual binding)
# [19] = molecular target: T7, recombinant human Her2 ECD …; experiment: SPR, human Her-2
# [20] = molecular target: T9, human HER2 expressed on cells (SK-OV3, …); experiment: flow cytometry, MCF-7 cells
# [21] = molecular target: T9, human HER2 expressed on cells (SK-OV3, …); experiment: flow cytometry, IFNy-stimulated HCC827 cells
binder,measurement,setting,value
PRO1993 (multispecific antibody) chain 1: DIQMTQSPSSLSASVGDRVTITCKASQDVSIGVAWYQQKPGKAPKLLIYSASYRYTGVPSRFSGSGSGTDFTLTISSLQPEDFATYYCQQYYIYPYTFGCGTKVTVLGGGGGSGGGGSGGGGSGGGGSEVQLVESGGGLVQPGGSLRLSCAASGFTFTDYTMDWVRQAPGKCLEWVADVNPNSGGSIYNQRFKGRFTLSVDRSKNTLYLQMNSLRAEDTAVYYCARNLGPSFYFDYWGQGTLVTVSSGGGGSGGGGSDVVMTQSPSSLSASVGDRVTITCQASQIISSRSAWYQQKPGQPPKLLIYQASKLASGVPSRFSGSGSGTDFTLTISSLQPEDFATYYCQCTYIDSNFGAFGTGTKLTVLGGGSGGSDIQMTQSPSSLSASVGDRVTITCQASQSISNRLAWYQQKPGKAPKLLIYSASTLASGVPSRFSGSGSGTDFTLTISSLQPEDFATYYCQSTYYGNDGNAFGCGTKVTVLG chain 2: DIQMTQSPSSLSASVGDRVTITCQASQSINDYLAWYQQKPGKAPKLLIYKASTLASGVPSRFSGSGSGTDFTLTISSLQPEDFATYYCQAAYIITDIDNVFGTGTKVTVLGGGGGSGGGGSGGGGSGGGGSQVQLQESGPGLVKPSETLSLTCKVSGFSFSSGYDMCWIRQPPGKGLEWIGCVVAGSVDITYYASWAKGRVTISVDSSKNQFSLKLSSVTAADTAVYYCARKDAYSDAFNLWGQGTLVTVSSGGGGSGGGGSEVQLVESGGGLVQPGGSLRLSCAASGFSFSANYYPCWVRQAPGKCLEWIGCIYGGSSDITYDANWTKGRFTISRDNSKNTVYLQMNSLRAEDTAVYYCARSAWYSGWGGDLWGQGTLVTVSSGGGSGGGSEVQLVESGGGLVQPGGSLRLSCAASGFSFSSSYWICWVRQAPGKGLEWVGCVFTGDGTTYYASWAKGRFTISRDNSKNTVYLQMNSLRAEDTATYFCARPVSVYYYGMDLWGQGTLVTVSS,IC50 (read off the curve),[1],~2 nM
same,"EC50, NFkB reporter gene assay, HCC827 cells",[2],0.287 nM
same,"EC50, NFkB reporter gene assay, HCC1954 cells",[2],0.168 nM
same,IC50,[3],0.167 µg/mL
PRO1557 (multispecific antibody) chain 1: not shown chain 2: DIQMTQSPSSLSASVGDRVTITCQASENIYSFLAWYQQKPGKAPKLLIYSASKLAAGVPSRFSGSGSGTDFTLTISSLQPEDFATYYCQQTNRYSNPDIYNVFGTGTKVTVLGGGGGSGGGGSGGGGSGGGGSEVQLVESGGGLVQPGGSLRLSCAASGIDFNSNYYMCWVRQAPGKGLEWIGCIYVGSHVNTYYANWAKGRFTISRDNSKNTVYLQMNSLRAEDTAVYYCATSGSSVLYFKFWGQGTLVTVSSGGGGSGGGGSEVQLVESGGGLVQPGGSLRLSCAASGFSLSSYDMSWVRQAPGKGLAWIGASYASGPTYYASWAKGRFTISRDNSKNTVYLQMNSLRAEDTATYFCARGGWTGTSHSNIWGQGTLVTVSSGGGSGGGSEVQLVESGGGLVQPGGSLRLSCAASGFSFSSSYWICWVRQAPGKCLEWVGCVFTGDGTTYYASWAKGRFTISRDNSKNTVYLQMNSLRAEDTATYFCARPVSVYYYGMDLWGQGTLVTVSS,Kd,human serum albumin,0.498 nM
same,koff,human serum albumin,0.00012 s⁻¹
same,kon,human serum albumin,240000 M⁻¹ s⁻¹
same,"IC50, NFAT reporter, HCC1954 cells",[4],0.391 nM
same,"IC50, NFAT reporter, HCC1954 cells, + PRO1434",[4],0.671 nM
same,"IC50, NFAT reporter, HCC1954 cells, + nivolumab",[4],0.319 nM
same,"rel. max. activation vs PRO1497, NFAT reporter, HCC1954 cells",[4],82%
same,binding result,[5],no binding
same,Kd,[6],8.43 nM
same,KD1,[7],18.7 nM
same,kd2,[7],0.00356 s⁻¹
same,Kd,[8],0.931 nM
same,koff,[8],0.000514 s⁻¹
same,kon,[8],552000 M⁻¹ s⁻¹
same,koff,[9],0.00529 s⁻¹
same,Kd,[10],0.318 nM
same,koff,[10],6.35e-05 s⁻¹
same,kon,[10],200000 M⁻¹ s⁻¹
same,kon,[11],283000 M⁻¹ s⁻¹
same,Kd,mouse serum albumin,11.2 nM
same,koff,mouse serum albumin,0.00107 s⁻¹
same,kon,mouse serum albumin,95600 M⁻¹ s⁻¹
same,"target cell killing IC50, 16 h, HCC1954 cells",[12],0.00279 nM
same,"target cell killing IC50, 16 h, MCF-7 cells",[12],0.0181 nM
"PRO1895 (multispecific antibody, also called pertuzumab-based MATCH4) chain 1: DIQMTQSPSSLSASVGDRVTITCKASQDVSIGVAWYQQKPGKAPKLLIYSASYRYTGVPSRFSGSGSGTDFTLTISSLQPEDFATYYCQQYYIYPYTFGCGTKVTVLGGGGGSGGGGSGGGGSGGGGSEVQLVESGGGLVQPGGSLRLSCAASGFTFTDYTMDWVRQAPGKCLEWVADVNPNSGGSIYNQRFKGRFTLSVDRSKNTLYLQMNSLRAEDTAVYYCARNLGPSFYFDYWGQGTLVTVSSGGGGSGGGGSDVVMTQSPSSLSASVGDRVTITCQASQIISSRSAWYQQKPGQPPKLLIYQASKLASGVPSRFSGSGSGTDFTLTISSLQPEDFATYYCQCTYIDSNFGAFGCGTKLTVLGGGSGGSDIQMTQSPSSLSASVGDRVTITCQSSQSVFSNNYLAWFQQKPGQSPKRLIYSASTLASGVPSRFSGSGSGTDFTLTISSLQPEDFATYYCLGSYACSSADCYVFGTGTKVTVLG chain 2: DIQMTQSPSSLSASVGDRVTITCQASQSINDYLAWYQQKPGKAPKLLIYKASTLASGVPSRFSGSGSGTDFTLTISSLQPEDFATYYCQAAYIITDIDNVFGTGTKVTVLGGGGGSGGGGSGGGGSGGGGSQVQLQESGPGLVKPSETLSLTCKVSGFSFSSGYDMCWIRQPPGKGLEWIGCVVAGSVDITYYASWAKGRVTISVDSSKNQFSLKLSSVTAADTAVYYCARKDAYSDAFNLWGQGTLVTVSSGGGGSGGGGSEVQLVESGGGLVQPGGSLRLSCAASGFSLSSYDMSWVRQAPGKGLAWIGASYASGPTYYASWAKGRFTISRDNSKNTVYLQMNSLRAEDTATYFCARGGWTGTSHSNIWGQGTLVTVSSGGGSGGGSEVQLVESGGGLVQPGGSLRLSCAASGFSFSSSYWICWVRQAPGKCLEWVGCVFTGDGTTYYASWAKGRFTISRDNSKNTVYLQMNSLRAEDTATYFCARPVSVYYYGMDLWGQGTLVTVSS",EC50,[13],1.87 nM
same,EC50,[14],4.55 nM
same,"T cell activation IC50, PBMC with HCC827 cells",[15],0.153 nM
same,"T cell activation IC50, PBMC with HCC1954 cells",[15],0.027 nM
same,EC50,[16],2.02 nM
same,EC50,[17],17.3 nM
same,EC50,[18],97.3 nM
same,Kd,[19],0.414 nM
same,koff,[19],8.11e-05 s⁻¹
same,kon,[19],196000 M⁻¹ s⁻¹
same,EC50,[20],5.35 nM
same,EC50,[21],1.34 nM
